Source: publication PMC5868259

Biological target: PKA catalytic subunit (PKAc), recombinant (UniProt P05132)
Experiment: fluorescence polarisation; LiReC competition assay, R-subunit inhibition response without cAMP: 10.0 nM PKAc, 1 nM-1 μM bRIα (monomer), 1.67 nM [5/6-FAM]-IP20; 50 mM MOPS pH 7.0, 35 mM NaCl, 10 mM MgCl2, 1 mM ATP, 2 mM DTT, 0.005% Triton X-100

With “recombinant bovine PKA regulatory subunit RIα (bRIα), S101A mutant (from UniProt P00514 1-380) (natural protein)” the IC50 was 5.05 nM and the Kd was under 10 nM.

“recombinant bovine PKA regulatory subunit RIα (bRIα), S101E phosphomimetic mutant (from UniProt P00514 1-380) (natural protein)” showed an IC50 of 212 nM.

With “recombinant bovine PKA regulatory subunit RIα (bRIα), wildtype (from UniProt P00514 1-380) (natural protein)” the IC50 was 4.5 nM and the Kd was under 10 nM.
